Targets include CAMK2D (CaMKII delta) (UniProt Q13557 1-499, limits assumed); MAPKAPK3 (UniProt Q16644 1-382, limits assumed); PKN1 (PRK1) (UniProt Q16512 1-942, limits assumed); PRKCD (PKC delta) (UniProt Q05655 1-676, limits assumed); GRK6 (UniProt P43250 1-576, limits assumed).
Assay in all cases: cell-based or functional assay
The target of assay [1] is MAP2K2 (MEK2) Mitogen-activated protein kinase kinase 2 (UniProt P36507 1-400, limits assumed).
Assay [2] has as its target RPS6KA3 (RSK2) Ribosomal protein S6 kinase, 90 kDa, polypeptide 3 (UniProt P51812 1-740, limits assumed).
Assay [3] addresses MAPK9 (JNK2) Mitogen-activated protein kinase 9 (UniProt P45984 1-424, limits assumed).
The next assay has as its target T1, PRKCN (PKD3) (UniProt O94806 1-890, limits assumed).
T1 sequence (looked up): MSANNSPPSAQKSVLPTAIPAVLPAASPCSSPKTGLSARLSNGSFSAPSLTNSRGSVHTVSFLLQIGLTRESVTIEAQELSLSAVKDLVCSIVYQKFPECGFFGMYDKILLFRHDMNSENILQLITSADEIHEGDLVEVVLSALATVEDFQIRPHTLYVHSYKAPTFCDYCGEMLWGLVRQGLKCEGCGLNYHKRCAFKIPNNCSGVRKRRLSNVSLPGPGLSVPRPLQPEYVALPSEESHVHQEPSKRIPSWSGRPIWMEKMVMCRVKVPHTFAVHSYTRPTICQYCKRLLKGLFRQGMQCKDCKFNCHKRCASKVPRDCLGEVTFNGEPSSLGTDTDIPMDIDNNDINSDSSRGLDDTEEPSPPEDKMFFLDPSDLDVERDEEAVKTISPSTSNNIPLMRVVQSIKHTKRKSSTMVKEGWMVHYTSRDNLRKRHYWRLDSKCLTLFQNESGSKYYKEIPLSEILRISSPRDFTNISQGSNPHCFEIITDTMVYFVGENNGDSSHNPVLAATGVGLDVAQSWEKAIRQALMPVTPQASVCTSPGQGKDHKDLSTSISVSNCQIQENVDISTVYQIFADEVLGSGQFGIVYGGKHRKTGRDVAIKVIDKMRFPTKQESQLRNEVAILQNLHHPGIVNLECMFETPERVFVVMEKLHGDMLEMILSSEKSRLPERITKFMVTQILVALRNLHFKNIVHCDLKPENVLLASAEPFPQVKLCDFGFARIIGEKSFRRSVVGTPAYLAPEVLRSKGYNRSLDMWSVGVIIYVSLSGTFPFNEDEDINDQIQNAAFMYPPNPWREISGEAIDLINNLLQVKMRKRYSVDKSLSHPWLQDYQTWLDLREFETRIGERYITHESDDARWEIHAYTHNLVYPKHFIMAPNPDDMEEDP

Another assay addresses T2, ADRBK2 (GRK3) (UniProt P35626 1-688, limits assumed).
T2 sequence (looked up): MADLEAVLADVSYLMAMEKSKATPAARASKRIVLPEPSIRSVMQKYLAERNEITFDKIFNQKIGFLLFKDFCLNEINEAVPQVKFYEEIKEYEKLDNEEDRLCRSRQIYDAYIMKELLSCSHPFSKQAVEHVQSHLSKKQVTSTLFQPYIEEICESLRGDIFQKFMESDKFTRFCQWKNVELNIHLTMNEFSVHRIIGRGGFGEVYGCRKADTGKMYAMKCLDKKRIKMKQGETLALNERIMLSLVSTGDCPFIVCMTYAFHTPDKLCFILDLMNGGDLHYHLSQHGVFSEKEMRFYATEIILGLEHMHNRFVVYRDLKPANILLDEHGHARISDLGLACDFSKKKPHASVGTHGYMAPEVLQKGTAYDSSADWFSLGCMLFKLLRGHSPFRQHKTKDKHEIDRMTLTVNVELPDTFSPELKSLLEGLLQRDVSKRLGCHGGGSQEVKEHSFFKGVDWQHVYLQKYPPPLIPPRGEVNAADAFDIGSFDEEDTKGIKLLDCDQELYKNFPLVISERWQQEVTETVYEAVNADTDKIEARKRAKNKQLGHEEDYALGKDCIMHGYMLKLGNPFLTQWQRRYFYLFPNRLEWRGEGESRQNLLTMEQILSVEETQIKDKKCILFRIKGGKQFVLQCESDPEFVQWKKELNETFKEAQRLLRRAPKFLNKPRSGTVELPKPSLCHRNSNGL

In the next assay the target is T3, DYRK4 (UniProt Q9NR20 1-520, limits assumed).
T3 sequence (looked up): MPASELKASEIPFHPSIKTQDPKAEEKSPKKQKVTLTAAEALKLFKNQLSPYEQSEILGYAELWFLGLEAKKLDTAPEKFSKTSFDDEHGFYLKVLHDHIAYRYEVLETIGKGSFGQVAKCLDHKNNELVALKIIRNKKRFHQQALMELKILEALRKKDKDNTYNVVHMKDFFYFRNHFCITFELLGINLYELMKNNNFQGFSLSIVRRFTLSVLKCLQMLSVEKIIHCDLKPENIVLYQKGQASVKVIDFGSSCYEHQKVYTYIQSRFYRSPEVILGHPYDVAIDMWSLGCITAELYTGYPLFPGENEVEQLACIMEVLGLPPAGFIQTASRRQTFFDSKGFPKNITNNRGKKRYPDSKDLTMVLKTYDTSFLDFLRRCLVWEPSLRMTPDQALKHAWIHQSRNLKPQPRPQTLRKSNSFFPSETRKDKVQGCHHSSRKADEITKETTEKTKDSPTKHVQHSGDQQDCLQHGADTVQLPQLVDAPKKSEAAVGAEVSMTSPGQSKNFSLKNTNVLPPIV
Also: test concentration or dose not given here.

Chain of MAPKAPK3 (Q16644 whole entry): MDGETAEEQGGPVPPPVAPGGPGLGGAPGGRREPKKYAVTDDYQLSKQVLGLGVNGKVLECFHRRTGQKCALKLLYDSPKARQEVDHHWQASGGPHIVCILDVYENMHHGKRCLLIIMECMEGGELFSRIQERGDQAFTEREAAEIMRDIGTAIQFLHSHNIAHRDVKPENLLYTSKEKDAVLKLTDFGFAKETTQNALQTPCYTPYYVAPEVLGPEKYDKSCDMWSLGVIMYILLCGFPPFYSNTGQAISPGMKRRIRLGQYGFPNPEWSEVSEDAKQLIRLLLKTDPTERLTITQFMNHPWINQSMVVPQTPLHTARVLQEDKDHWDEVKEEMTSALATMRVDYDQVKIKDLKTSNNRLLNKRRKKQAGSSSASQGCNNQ
Chain of RPS6KA3 (RSK2) Ribosomal protein S6 kinase, 90 kDa, polypeptide 3 (P51812 whole entry): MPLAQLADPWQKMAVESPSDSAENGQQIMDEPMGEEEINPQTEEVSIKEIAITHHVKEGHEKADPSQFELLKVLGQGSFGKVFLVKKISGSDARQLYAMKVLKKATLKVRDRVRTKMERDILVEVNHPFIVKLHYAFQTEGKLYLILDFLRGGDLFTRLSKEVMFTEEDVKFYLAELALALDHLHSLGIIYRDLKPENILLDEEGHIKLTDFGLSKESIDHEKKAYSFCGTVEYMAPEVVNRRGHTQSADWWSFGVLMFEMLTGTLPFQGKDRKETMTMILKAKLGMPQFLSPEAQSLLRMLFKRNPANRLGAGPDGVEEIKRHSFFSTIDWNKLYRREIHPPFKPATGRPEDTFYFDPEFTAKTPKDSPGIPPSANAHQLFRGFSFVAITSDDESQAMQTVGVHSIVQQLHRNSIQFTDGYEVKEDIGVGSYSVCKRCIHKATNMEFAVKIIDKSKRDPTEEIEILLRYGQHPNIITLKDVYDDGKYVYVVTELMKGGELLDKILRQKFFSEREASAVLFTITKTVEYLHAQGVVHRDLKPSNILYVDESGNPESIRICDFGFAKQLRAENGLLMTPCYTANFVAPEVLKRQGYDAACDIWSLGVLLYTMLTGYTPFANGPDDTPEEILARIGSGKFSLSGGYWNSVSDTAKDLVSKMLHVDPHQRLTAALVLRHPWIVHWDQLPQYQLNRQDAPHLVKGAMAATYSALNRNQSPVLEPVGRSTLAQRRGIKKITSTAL
Chain of PKN1 (PRK1) (Q16512 whole entry): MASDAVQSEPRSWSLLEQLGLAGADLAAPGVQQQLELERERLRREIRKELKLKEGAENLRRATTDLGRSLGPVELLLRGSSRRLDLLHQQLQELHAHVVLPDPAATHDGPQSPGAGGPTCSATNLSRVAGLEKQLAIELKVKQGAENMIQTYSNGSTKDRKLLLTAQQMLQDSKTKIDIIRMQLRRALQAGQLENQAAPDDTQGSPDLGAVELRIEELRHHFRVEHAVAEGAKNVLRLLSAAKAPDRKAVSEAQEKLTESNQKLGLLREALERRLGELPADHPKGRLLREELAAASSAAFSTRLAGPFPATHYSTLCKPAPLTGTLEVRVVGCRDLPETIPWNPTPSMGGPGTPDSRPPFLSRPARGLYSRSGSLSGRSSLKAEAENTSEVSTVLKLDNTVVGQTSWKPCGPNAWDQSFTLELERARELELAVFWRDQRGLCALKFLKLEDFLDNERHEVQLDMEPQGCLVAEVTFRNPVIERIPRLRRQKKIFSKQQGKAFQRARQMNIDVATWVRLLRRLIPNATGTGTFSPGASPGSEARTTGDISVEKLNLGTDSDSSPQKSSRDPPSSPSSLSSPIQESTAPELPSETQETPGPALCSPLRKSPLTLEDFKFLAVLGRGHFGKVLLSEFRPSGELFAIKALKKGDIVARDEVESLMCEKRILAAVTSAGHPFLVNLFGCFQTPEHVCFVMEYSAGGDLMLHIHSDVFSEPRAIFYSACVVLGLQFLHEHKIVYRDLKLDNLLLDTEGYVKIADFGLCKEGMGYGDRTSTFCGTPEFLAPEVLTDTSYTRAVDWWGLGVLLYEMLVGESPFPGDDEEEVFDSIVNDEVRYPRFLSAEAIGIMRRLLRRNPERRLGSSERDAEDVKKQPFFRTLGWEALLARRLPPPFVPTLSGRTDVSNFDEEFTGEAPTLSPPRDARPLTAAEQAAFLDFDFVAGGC
Chain of GRK6 (P43250 whole entry): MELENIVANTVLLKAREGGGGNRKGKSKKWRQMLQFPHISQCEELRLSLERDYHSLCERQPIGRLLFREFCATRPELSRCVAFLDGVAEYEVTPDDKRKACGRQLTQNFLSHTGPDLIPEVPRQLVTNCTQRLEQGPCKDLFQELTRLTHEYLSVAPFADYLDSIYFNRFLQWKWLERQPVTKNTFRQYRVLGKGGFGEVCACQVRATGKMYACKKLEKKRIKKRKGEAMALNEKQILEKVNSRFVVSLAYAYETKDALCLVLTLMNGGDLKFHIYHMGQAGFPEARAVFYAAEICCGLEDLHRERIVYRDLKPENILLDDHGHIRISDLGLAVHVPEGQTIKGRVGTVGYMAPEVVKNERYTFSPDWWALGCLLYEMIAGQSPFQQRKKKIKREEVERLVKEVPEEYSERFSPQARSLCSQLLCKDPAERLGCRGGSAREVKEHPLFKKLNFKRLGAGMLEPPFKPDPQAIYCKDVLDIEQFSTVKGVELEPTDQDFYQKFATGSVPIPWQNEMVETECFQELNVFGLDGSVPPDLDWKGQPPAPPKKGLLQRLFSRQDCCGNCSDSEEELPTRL
Chain of PRKCD (PKC delta) (Q05655 whole entry, stated change not applied): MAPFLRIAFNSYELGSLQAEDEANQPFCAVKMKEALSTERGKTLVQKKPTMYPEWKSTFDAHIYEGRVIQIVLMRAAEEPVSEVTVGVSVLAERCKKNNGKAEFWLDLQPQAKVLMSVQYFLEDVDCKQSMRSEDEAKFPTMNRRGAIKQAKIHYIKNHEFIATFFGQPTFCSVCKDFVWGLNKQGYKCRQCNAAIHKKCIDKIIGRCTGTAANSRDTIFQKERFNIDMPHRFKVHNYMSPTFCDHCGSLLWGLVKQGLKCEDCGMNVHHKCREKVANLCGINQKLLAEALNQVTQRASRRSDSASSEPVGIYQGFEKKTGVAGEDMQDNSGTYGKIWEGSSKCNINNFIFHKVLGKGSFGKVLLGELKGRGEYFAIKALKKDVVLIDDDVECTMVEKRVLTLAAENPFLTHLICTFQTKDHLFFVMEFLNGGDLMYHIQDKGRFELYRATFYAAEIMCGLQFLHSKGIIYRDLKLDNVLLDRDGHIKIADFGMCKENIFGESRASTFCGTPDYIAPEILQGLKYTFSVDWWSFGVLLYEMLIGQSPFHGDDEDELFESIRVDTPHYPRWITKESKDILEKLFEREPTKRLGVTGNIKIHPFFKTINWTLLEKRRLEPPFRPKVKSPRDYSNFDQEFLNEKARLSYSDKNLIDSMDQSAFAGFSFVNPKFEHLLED
Chain of CAMK2D (CaMKII delta) (Q13557 whole entry, stated change not applied): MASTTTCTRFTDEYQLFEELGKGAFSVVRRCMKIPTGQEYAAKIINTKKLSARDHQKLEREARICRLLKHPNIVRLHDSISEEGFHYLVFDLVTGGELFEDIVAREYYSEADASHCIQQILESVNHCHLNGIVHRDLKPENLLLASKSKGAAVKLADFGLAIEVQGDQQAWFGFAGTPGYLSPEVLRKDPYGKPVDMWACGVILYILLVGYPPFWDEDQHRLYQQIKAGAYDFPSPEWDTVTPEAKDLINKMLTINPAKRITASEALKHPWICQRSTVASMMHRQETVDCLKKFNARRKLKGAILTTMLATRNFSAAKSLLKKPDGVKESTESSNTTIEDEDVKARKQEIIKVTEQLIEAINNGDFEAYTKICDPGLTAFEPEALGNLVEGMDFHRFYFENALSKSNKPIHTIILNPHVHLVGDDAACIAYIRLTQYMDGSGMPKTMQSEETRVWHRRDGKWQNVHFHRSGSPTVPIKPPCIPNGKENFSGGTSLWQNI

B1: D3 peptide (peptide)
peptide: SGRPPMIVWFNRPFLIAVSHTHGQTILFMAKVINPVGA
For the molecule B1, the “% Inhibition mean” value in assay [1] was 105%; in assay [2] it was 93%; in [3] it was 92.9%; with CAMK2D (CaMKII delta), 72.5%; with PRKCN (PKD3), 69.6%; with ADRBK2 (GRK3) it was 66.7%. In addition, the “% Inhibition mean” value in the assay with MAPKAPK3 stood at 64.1%; with PKN1 (PRK1), 64%; in the assay with DYRK4 it was 61.2%; with PRKCD (PKC delta) it was 57.4%; with GRK6, 57.1%.
